Source: the RNAGym collection of RNA variant scans (doi:10.1073/pnas.2313332121)

B1: TPR t1 (parent)
chain: GACCAAUCUGCCCUCAGAGCUCGAGAACAUCUUCGGAUGCAGAGGAGGCAGGCUUCGGUGGCGCGAUAGCGCCAACGUCCUCAACCUCCAAUGCAUCCCACCACAUGAUGAUGCCUGAAGAGCCUUGGUUUUUUG

Variants of: B1
Assay: polymerase ribozyme fitness, log enrichment relative to wild type (log ratio); higher = more active; in vitro selection for triplet polymerase activity
How it was run: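 Each subunit of a heterodimeric triplet polymerase ribozyme was mutagenized into a library by PCR, transcribed, and subjected to one round of in vitro selection, run in triplicate. Libraries were annealed with a biotinylated primer, the partner subunit and triplets, incubated frozen at −7 °C, and extended constructs were gel-excised, captured on streptavidin beads and recovered by RT-PCR. Input and output libraries were sequenced on Illumina, keeping genotypes with ≥10 input reads and ≥1 read per output. Fitness is log base 2 of genotype enrichment divided by wild-type enrichment, from inverse-variance-weighted replicate averages.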

In order of rising “polymerase ribozyme fitness (log ratio)” value:
1. C49A G61C C80G C104A G117U  -8.34
2. C49A G58C C88G A91U C104G A119G U133G  -7.73
3. C49G C62A G93U C104A G113U U116A  -7.29
4. C49A G63A C70A U109C  -7.14
5. G48U U54C C73G C82G G113A G122A U126G  -6.92
6. G48C C56G G71A C97A C104U U112G  -6.76
7. G48C C56A C97A C104U U112G  -6.59
8. G48C G60U U106A G107C  -6.48
9. C49G C56A G71A G93C  -6.41
10. G48U G69C C86G G113U  -6.36
11. C49A A91G G93U G117U G135A  -6.28
12. G48C U78A A111U C123A U129A  -6.15
13. C49A C70A C97A G120U U130G  -6.14
14. C49G C70U G113U U125C U131G  -6.12
15. G48U U59C C70G  -6.09
16. C49A G110C U112A  -5.99
17. G48C G60U A105C U116C  -5.8
18. C49G A103U  -5.7
19. G48U U109A  -5.53
20. G48U G61C U78G C98U  -5.49
21. G48C A103G  -5.44
22. G48U U106C G117C  -5.18
23. C49A A111C G113U  -5.03
24. G48C G57A G63A G93U G127A  -4.97
25. G48U C73G G110U G120U  -4.95
26. C49G C72G G117A U125A  -4.73
27. G48U C101A U116G U130A  -4.7
28. G48U U109G  -4.7
29. C49G C82U G93U G117U  -4.66
30. C49G C62U C88A A95C U130G  -4.6
31. G48C G113U C123A  -4.5
32. G48C C49U A111U U133A  -4.49
33. C49G C73G C89U G113A G122C  -4.49
34. C49A C72U G113A G128C  -4.46
35. C49G A68G G77U  -4.38
36. G48U G51C A95C A111G U134A  -4.35
37. C49G C62U A90U G113U  -4.27
38. C49G A103U C124U  -4.18
39. G48U G63A G110U  -4.15
40. C49A C85U G113A A119C  -4.02
41. C49A C79A  -3.94
42. G48C C72A C79G G127C  -3.9
43. C49A A90U A111C G113A G122C  -3.8
44. G48C G69A  -3.69
45. C49A G51C G57C C72U C115G  -3.69
46. G48C G63A G113A U126C  -3.69
47. G48C C62U U92G  -3.68
48. C49A A50C G117U  -3.66
49. C49A A105C A118G U130A  -3.62
50. C49A G61C C88U G117A G135C  -3.6
51. C49G A90U G113U  -3.57
52. G48U A83G C97U C104A G120A  -3.43
53. C49G C70U C85G A105U  -3.38
54. G48C G61A A83U U87A G128U  -3.32
55. G48U A66G C86A U125G G127C  -3.31
56. G48C U55C A95C C98U  -3.28
57. G48U G71U C114U  -3.21
58. G48C C49A U129A  -3.14
59. C49A C56G G69U C72A  -3.13
60. G48U U54C C82G C115G  -3.12
61. G48C C49A G128A  -3.09
62. G48C C53U U54C U81A  -2.99
63. G48U C76U C89G C124U G128U U132C  -2.96
64. C49G C70G G77U U78A C85A  -2.95
65. C49G A91U  -2.92
66. C49A G69A U106A  -2.86
67. G48U G52U A90G A91U C114U  -2.83
68. G48U C56A C102U  -2.75
69. G48U C114U  -2.73
70. G48C G63C  -2.72
71. G48U C70U C86U G113A  -2.66
72. C49G A90U  -2.58
73. G48U C79U  -2.53
74. G48C G60U A74U C115U  -2.52
75. C49G C56G A91C  -2.49
76. G48C A90U U112G  -2.32
77. C49A G93C G110U U132C  -2.27
78. G48U C56U C104A  -2.25
79. G48C G52C  -2.25
80. C49A C72U G77U  -2.22
81. G48U G69C  -2.22
82. G48C C49A C56U U87A U96A G120C  -2.17
83. G48U C62U G71C U96A  -2.08
84. C49A G113C  -2.05
85. C49A U54A G60U U81A G128U  -2
86. G48C C56U C73G  -1.95
87. G48U C89G  -1.92
88. G48U G60U A66C U78G A90G C123A U132A  -1.91
89. G48C C56G C101U U125G  -1.87
90. C49G A50U C72U  -1.85
91. G48U G110A  -1.84
92. G48C U131A  -1.82
93. G48C G93A  -1.82
94. C49A C89A  -1.76
95. G48C C114A  -1.76
96. C49A G110U  -1.73
97. G48U C72G  -1.7
98. G48U C102A A111G  -1.65
99. G48C G60C  -1.63
100. G48C G127C  -1.62
101. C49A C114U  -1.61
102. C49A A50G C88A  -1.58
103. C49A C70A G120C U126C U131G  -1.57
104. G48U C72G U96C  -1.54
105. C49A G57A  -1.5
106. C49A C53U C101A  -1.38
107. C49A A50G G52U A105U  -1.36
108. C49A G63U  -1.35
109. G48C C79U  -1.34
110. C49A G110A  -1.34
111. C49A U59A G122A  -1.33
112. C49G C62A  -1.32
113. C49G C72A C79U G93U  -1.3
114. G48U G93U  -1.29
115. C49A U96A  -1.29
116. G48C G61U C98U U112C  -1.23
117. G48C C62U A75G  -1.21
118. G48C G60A  -1.1
119. G48U G71A  -1.06
120. C49G A50U  -1.05
121. C49A C73A C88U A91U  -1.03
122. G48U G71U  -1.01
123. C49A U78A U87G U130A  -1.01
124. C49A U54A G77U  -0.966
125. C49A U78G U96G  -0.964
126. G48C G63A  -0.954
127. C49A G63U C123A  -0.941
128. C49A C53U G61A C101A  -0.913
129. G48C G57U U96C  -0.888
130. C49A G52A  -0.855
131. C49A C53G  -0.789
132. C49A C72G U132C  -0.77
133. G48C A95G U106A  -0.768
134. G48C G120A  -0.738
135. C49A U96C  -0.589
136. G48C G93C  -0.578
137. G48C U78G  -0.55
138. C49A G57U  -0.512
139. C49G A119U  -0.491
140. G48U C85G C89U  -0.48
141. C49G C85A U112G A121G C124U  -0.43
142. G48U U55G  -0.43
143. G48U G93A G120A  -0.388
144. G48U C64U  -0.368
145. C49A A83U  -0.343
146. C49A G120U  -0.22
147. C49A G60A  -0.214
148. G48U U131C  -0.204
149. C49A U78G U87G A121G G128U  -0.14
150. G48U A121C  -0.0339
151. C49A G58A  -0.0101
152. G48C U106A  0.0361
153. C49A C73A U130C  0.174
154. C49A A50C A119G  0.187
155. C49A G60U  0.254
156. G48U C124U U125A  0.397
157. G48U U59C  0.407
158. G48U G61U  0.43
159. G48C C115A A121U  0.474
160. C49A C56U C123A  0.705
161. C49A C72A A83C C101A A121U  0.741
162. G48C C70U C124A  0.758
163. C49G A83G  0.789
164. C49A G60A A121C G122A  0.833
165. C49A U54A C73U U112C  1.26
166. G48C G61U C124A  1.51
167. C49A C56U A121U  1.74
